The text below walks through data of patent US20200317768A1 (published 2020).

Residue numbers refer to the chain shown, from its start.

A word on the Kd: it is the equilibrium constant for the complex coming apart.

T1: cynomolgus monkey FcγRIIIaS extracellular domain, His-tagged (cynomolgus monkey, UniProt Q8SPW2 21-206 at identity 1.00))
T1 construct: also called cyno FcγRIIIaS; cynoFcγRIIIaS; not shown: C-terminal His-tag
T1 chain: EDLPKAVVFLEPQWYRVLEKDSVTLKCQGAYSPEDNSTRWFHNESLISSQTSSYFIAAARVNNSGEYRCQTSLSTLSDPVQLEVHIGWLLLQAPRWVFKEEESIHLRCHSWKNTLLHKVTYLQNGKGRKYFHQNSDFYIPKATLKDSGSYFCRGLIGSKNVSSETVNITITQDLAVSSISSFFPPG

T2: human FcγRIIaR extracellular domain, His-tagged (human, UniProt P12318 34-217)
T2 construct: also called human FcγRIIa (type R); FcgRIIaR; not shown: C-terminal His-tag
T2 chain: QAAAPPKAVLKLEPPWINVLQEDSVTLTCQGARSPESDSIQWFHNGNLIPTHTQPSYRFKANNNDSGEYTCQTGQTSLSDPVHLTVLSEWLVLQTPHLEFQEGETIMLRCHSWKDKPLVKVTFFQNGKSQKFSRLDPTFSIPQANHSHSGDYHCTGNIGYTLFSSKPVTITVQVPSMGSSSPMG

T3: cynomolgus monkey FcγRIIa1 extracellular domain, His-tagged (cynomolgus monkey)
T3 construct: also called cyno FcγRIIa1; cynoFcgRIIa1; not shown: C-terminal His-tag
T3 chain: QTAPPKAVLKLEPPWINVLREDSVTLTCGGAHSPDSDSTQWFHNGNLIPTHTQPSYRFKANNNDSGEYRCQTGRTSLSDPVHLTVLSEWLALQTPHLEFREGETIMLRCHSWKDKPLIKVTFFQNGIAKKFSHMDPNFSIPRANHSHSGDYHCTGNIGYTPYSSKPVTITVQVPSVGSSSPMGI

T4: cynomolgus monkey FcγRIIa2 extracellular domain, His-tagged (cynomolgus monkey)
T4 construct: also called cyno FcγRIIa2; cynoFcgRIIa2; not shown: C-terminal His-tag
T4 chain: T3 chain with P95T, T121A, I127K, A128S, K130N, D135N, R142Q

T5: human FcγRIIaH extracellular domain, His-tagged (human, UniProt P12318 34-217)
T5 construct: also called human FcγRIIa (type H); FcgRIIaH; not shown: C-terminal His-tag
T5 sequence: T2 chain with R134H

T6: cynomolgus monkey FcγRIIb extracellular domain, His-tagged (cynomolgus monkey)
T6 construct: also called cyno FcγRIIb; cynoFcγRIIb; not shown: C-terminal His-tag
T6 chain: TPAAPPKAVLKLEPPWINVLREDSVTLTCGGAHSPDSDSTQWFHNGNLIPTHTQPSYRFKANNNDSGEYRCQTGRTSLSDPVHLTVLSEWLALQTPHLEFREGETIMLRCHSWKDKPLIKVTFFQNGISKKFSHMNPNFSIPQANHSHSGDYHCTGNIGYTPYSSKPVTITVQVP

T7: cynomolgus monkey FcγRIIa3 extracellular domain, His-tagged (cynomolgus monkey)
T7 construct: also called cyno FcγRIIa3; cynoFcgRIIa3; not shown: C-terminal His-tag
T7 chain: T3 chain with P95T, T121A, A128S, H133P, D135N

B1: M103205H795-MY461/M103202L889-SK1 (antibody, human IgG1, kappa)
heavy: QVTLKESGPVLVKPTETLTLTCTVSGIDLSHDDISWVRQAPGKGLEWVGIISYAGSTYYASWAKGRLTISKDTSKNQVVLTMTNMDPVDTATYYCARGVPAYSHGGDLWGQGTLVTVSSASTKGPSVFPLAPSSKSTSGGTAALGCLVKDYFPEPVTVSWNSGALTSGVHTFPAVLQSSGLYSLSSVVTVPSSSLGTQTYICNVNHKPSNTKVDKKVEPKSCDKTHTCPPCPFPELLTGPSVFLFPPKPKDTLMISRTPEVTCVVVDVSDEDPEVKFNWYVDGVEVHNAKTKPREEQYNSTYRVVSVLTVLHQDWLNGKEYKCKVSNKALPKPIEKTISKAKGQPREPQVYTLPPSREEMTKNQVSLTCLVKGFYPSDIAVEWESNGQPENNYKTTPPVLDSDGSFFLYSKLTVDKSRWQQGNVFSCSVMHEALHNHYTQKSLSLSP
light: DIVMTQSPATLSLSPGERATLSCTSSQSVYHANWLSWFQQKPGQPPKLLIYWASTLAYGVPSRFSGSGSGTDFTLTISSLQPEDAATYYCAGGYGGGRYAFGQGTKVEIKRTVAAPSVFIFPPSDEQLKSGTASVVCLLNNFYPREAKVQWKVDNALQSGNSQESVTEQDSKDSTYSLSSTLTLSKADYEKHKVYACEVTHQGLSSPVTKSFNRGEC
notes: copies: 2 + 2
B2: M103205H795-MY465/M103202L889-SK1 (antibody, human IgG1, kappa)
heavy: B1 heavy with F233K
light: B1 light
notes: copies: 2 + 2
B3: M103205H795-MY474/M103202L889-SK1 (antibody, human IgG1, kappa)
heavy: B1 heavy with F233V
light: B1 light
notes: copies: 2 + 2
B4: M103205H795-MY463/M103202L889-SK1 (antibody, human IgG1, kappa)
heavy: B1 heavy with F233H
light: B1 light
notes: copies: 2 + 2
B5: M103205H795-MY467/M103202L889-SK1 (antibody, human IgG1, kappa)
heavy: B1 heavy with F233M
light: B1 light
notes: copies: 2 + 2
B6: M103205H795-MY462/M103202L889-SK1 (antibody, human IgG1, kappa)
heavy: B1 heavy with F233G
light: B1 light
notes: copies: 2 + 2
B7: M103205H795-MY470/M103202L889-SK1 (antibody, human IgG1, kappa)
heavy: B1 heavy with F233Q
light: B1 light
notes: copies: 2 + 2
B8: M103205H795-MY471/M103202L889-SK1 (antibody, human IgG1, kappa)
heavy: B1 heavy with F233R
light: B1 light
notes: copies: 2 + 2
B9: M103205H795-MY472/M103202L889-SK1 (antibody, human IgG1, kappa)
heavy: B1 heavy with F233S
light: B1 light
notes: copies: 2 + 2
B10: M103205H795-MY464/M103202L889-SK1 (antibody, human IgG1, kappa)
heavy: B1 heavy with F233I
light: B1 light
notes: copies: 2 + 2
B11: M103205H795-MY468/M103202L889-SK1 (antibody, human IgG1, kappa)
heavy: B1 heavy with F233N
light: B1 light
notes: copies: 2 + 2
B12: M103205H795-MY466/M103202L889-SK1 (antibody, human IgG1, kappa)
heavy: B1 heavy with F233L
light: B1 light
notes: copies: 2 + 2
B13: M103205H795-MY469/M103202L889-SK1 (antibody, human IgG1, kappa)
heavy: B1 heavy with F233P
light: B1 light
notes: copies: 2 + 2
B14: M103205H795-MY473/M103202L889-SK1 (antibody, human IgG1, kappa)
heavy: B1 heavy with F233T
light: B1 light
notes: copies: 2 + 2

For the first experiment, the target named is T1, cynomolgus monkey FcγRIIIaS …. Put plainly: SPR (BIACORE), captured antibody, FcgR as analyte. (Surface plasmon resonance follows binding to a sensor surface in real time, without labels.)
For B1, the Kd was 2.1 µM.
The same measure, in the same setting: next, B2: 1.9 µM.
For the molecule B3, the Kd was found to be 1.6 µM.
In the case of B4, the Kd turned out to be 1.6 µM.
B5 had a Kd of 1.7 µM.
In the case of B6, the Kd amounted to 1.8 µM.
Still for that read-out and setting: in the case of B7 it was 1.7 µM; in that of B8, 1.8 µM.
As for B9, the Kd was 2.5 µM.
For B10, the Kd came out at 1.7 µM.
Consider B11, for which binding was put at a Kd of 2.3 µM.
Same read-out and setting: in the case of B12 it was 1.8 µM; in that of B13, 2.2 µM.
Same read-out and setting: next, B14: 1.7 µM.

The target of another experiment is T2, human FcγRIIaR extracellular domain, …. Put plainly: SPR (BIACORE), captured antibody, FcgR as analyte.
On to B1, for which the Kd is 0.34 µM.
In turn, B2 gave a Kd of 0.6 µM.
As to B3, binding was characterised by a dissociation constant (Kd) of 0.34 µM.
With B4, the Kd worked out at 0.52 µM.
Still for that read-out and setting: in the case of B5 it was 0.36 µM; in that of B6, 0.49 µM; in that of B7, 0.47 µM.
The same measure, in the same setting: in the case of B8 it was 0.47 µM; in that of B9, 0.49 µM; in that of B10, 0.26 µM.
Molecule B11 displayed a Kd of 0.47 µM.
As to B12, the Kd came out at 0.28 µM.
In turn, B13 registered a Kd of 0.43 µM.
On the same count and under the same terms, in the case of B14 it was 0.49 µM.

The target of a further experiment is T3, cynomolgus monkey FcγRIIa1 …. The experiment in a line: SPR (BIACORE), captured antibody, FcgR as analyte.
B1 came in with a dissociation constant (Kd) of 1.3 µM.
Same read-out and setting: in the case of B2 it was 2 µM.
In the case of B3, the Kd is 2 µM.
The same measure, in the same setting: in the case of B4 it was 2.1 µM.
In turn, B5 came in with a Kd of 1.9 µM.
The molecule B6 returned a Kd of 1.9 µM.
B7: binding was put at a Kd of 2.2 µM.
For B8, the Kd is 2.6 µM.
B9 returned a Kd of 2.4 µM.
Consider B10, for which binding was characterised by a dissociation constant (Kd) of 1.9 µM.
B11 had a Kd of 2.8 µM.
B12 displayed a Kd of 1.9 µM.
Consider B13, for which the affinity, expressed as Kd, was 2.2 µM.
As for B14, binding was characterised by a dissociation constant (Kd) of 1.6 µM.

The target in the next experiment is T4, cynomolgus monkey FcγRIIa2 …. Put plainly: SPR (BIACORE), captured antibody, FcgR as analyte.
B1 came in with a Kd of 1.8 µM.
In the case of B2, the Kd was found to be 2.8 µM.
B3: the Kd was determined as 1.8 µM.
In the case of B4, the Kd was 1.8 µM.
Take B5: binding was characterised by a dissociation constant (Kd) of 1.9 µM.
The same measure, in the same setting: next, B6: 1.6 µM; B7: 1.8 µM; B8: 2.1 µM.
As to B9, the affinity, expressed as Kd, was 2.1 µM.
Turning to B10, the affinity, expressed as Kd, was 1.5 µM.
B11 displayed a Kd of 2.5 µM.
For the molecule B12, the Kd turned out to be 1.8 µM.
Regarding B13, the Kd stood at 2.1 µM.
On to B14, for which the Kd came to 2.6 µM.

For the next experiment, the target named is T5, human FcγRIIaH extracellular domain, …. Put plainly: SPR (BIACORE), captured antibody, FcgR as analyte.
For the molecule B1, the Kd amounted to 0.13 µM.
In turn, B2 yielded a dissociation constant (Kd) of 0.25 µM.
The same measure, in the same setting: next, B3: 0.17 µM; B4: 0.22 µM.
Take B5: the Kd was determined as 0.18 µM.
Consider B6, for which the Kd came to 0.24 µM.
In turn, B7 gave a Kd of 0.22 µM.
Take B8: the Kd turned out to be 0.23 µM.
Same read-out and setting: next, B9: 0.25 µM; B10: 0.17 µM.
Turning to B11, the Kd came out at 0.28 µM.
On the same count and under the same terms, next, B12: 0.17 µM.
As for B13, binding was characterised by a dissociation constant (Kd) of 0.2 µM.
As for B14, binding was put at a Kd of 0.22 µM.

In another experiment the target is T6, cynomolgus monkey FcγRIIb extracellular …. The experiment in a line: SPR (BIACORE), captured antibody, FcgR as analyte.
As to B1, the affinity, expressed as Kd, was 0.47 µM.
On the same count and under the same terms, next, B2: 0.63 µM; B3: 0.5 µM; B4: 0.58 µM.
Turning to B5, binding was put at a Kd of 0.51 µM.
Molecule B6 showed a Kd of 0.47 µM.
In the case of B7, the Kd came to 0.55 µM.
The same measure, in the same setting: in the case of B8 it was 0.7 µM; in that of B9, 0.66 µM.
B10 displayed a Kd of 0.5 µM.
B11: binding was put at a Kd of 0.65 µM.
Turning to B12, binding was put at a Kd of 0.51 µM.
In turn, B13 returned a Kd of 0.61 µM.
Regarding B14, binding was characterised by a dissociation constant (Kd) of 0.58 µM.

The next experiment has as its target T7, cynomolgus monkey FcγRIIa3 …. Put plainly: SPR (BIACORE), captured antibody, FcgR as analyte.
As for B1, the Kd worked out at 3.3 µM.
As to B2, binding was put at a Kd of 5.2 µM.
For B3, the affinity, expressed as Kd, was 4.8 µM.
The molecule B4 returned a Kd of 4.4 µM.
On the same count and under the same terms, next, B5: 4.7 µM; B6: 4.2 µM; B7: 4.9 µM.
On to B8, for which the Kd was 4.5 µM.
Turning to B9, binding was characterised by a dissociation constant (Kd) of 5.1 µM.
Molecule B10 registered a Kd of 3.9 µM.
Consider B11, for which binding was put at a Kd of 5.2 µM.
The molecule B12 yielded a Kd of 4.4 µM.
The molecule B13 displayed a Kd of 4.9 µM.
B14: the Kd stood at 5.5 µM.
